Measurements: PMC3652857, “A Cryptic Targeting Signal Creates a Mitochondrial FEN1 Isoform with Tailed R-Loop Binding Properties”

Columns and labels:
[1] = target: T1, FENMIT (human, UniProt P39748-2 1-316); assay: EMSA; 1-50 nM FENMIT; 25 mM Tris pH 8.0, 1 mM DTT, 0.1 mg/ml BSA, 6% glycerol; 0.2 nM 32P substrate; 1 h on ice; 10% native PAGE in tris-borate; details: protein: recombinant; tags: His; label: 5'-32P; single strand
[2] = target: T1, FENMIT; assay: EMSA; 1-50 nM FENMIT; equal to short 3' flap; 25 mM Tris pH 8.0, 1 mM DTT, 0.1 mg/ml BSA, 6% glycerol; 0.2 nM 32P substrate; 1 h on ice; 10% native PAGE in tris-borate; details: protein: recombinant; tags: His; label: 5'-32P on RNA44; 5' RNA flap with 20 nt 3' DNA flap
[3] = target: T1, FENMIT; assay: competition; 25 nM FENMIT; cold RNA44 0-5 nM; 25 mM Tris pH 8.0, 1 mM DTT, 0.1 mg/ml BSA, 6% glycerol; 0.2 nM 32P substrate; 1 h on ice; 10% native PAGE in tris-borate; details: protein: recombinant; tags: His; label: 5'-32P on RNA44; equilibrating full 5' RNA flap, 1 nt 3' DNA flap
[4] = target: T1, FENMIT; assay: EMSA; 25 mM Tris pH 8.0, 1 mM DTT, 0.1 mg/ml BSA, 6% glycerol; 0.2 nM 32P substrate; 1 h on ice; 10% native PAGE in tris-borate; details: protein: recombinant, tags: His
[5] = target: FEN1 (FEN1-1.His) (human, UniProt P39748 1-380); assay: as above; details: protein: recombinant; tags: His; label: 5'-32P on 19DNA; equilibrating double flap: 19 nt 5' DNA flap, 1 nt 3' flap
[6] = target: FEN1 D181A (human, UniProt P39748 1-380, D181A); assay: as above; details: protein: recombinant; tags: His; label: 5'-32P on 19DNA; equilibrating double flap: 19 nt 5' DNA flap, 1 nt 3' flap
FEN1 D181A, sequence (P39748 whole entry D181A): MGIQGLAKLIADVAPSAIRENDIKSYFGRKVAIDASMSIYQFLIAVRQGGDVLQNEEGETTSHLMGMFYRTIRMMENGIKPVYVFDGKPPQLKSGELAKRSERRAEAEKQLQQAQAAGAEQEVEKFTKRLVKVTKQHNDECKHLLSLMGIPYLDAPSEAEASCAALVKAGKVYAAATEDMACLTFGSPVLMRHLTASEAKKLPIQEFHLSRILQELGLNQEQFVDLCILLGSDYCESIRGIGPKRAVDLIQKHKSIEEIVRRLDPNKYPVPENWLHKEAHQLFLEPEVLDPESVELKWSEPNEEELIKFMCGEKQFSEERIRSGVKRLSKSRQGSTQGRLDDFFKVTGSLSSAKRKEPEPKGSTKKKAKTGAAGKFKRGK

T1 sequence (P39748 65-380): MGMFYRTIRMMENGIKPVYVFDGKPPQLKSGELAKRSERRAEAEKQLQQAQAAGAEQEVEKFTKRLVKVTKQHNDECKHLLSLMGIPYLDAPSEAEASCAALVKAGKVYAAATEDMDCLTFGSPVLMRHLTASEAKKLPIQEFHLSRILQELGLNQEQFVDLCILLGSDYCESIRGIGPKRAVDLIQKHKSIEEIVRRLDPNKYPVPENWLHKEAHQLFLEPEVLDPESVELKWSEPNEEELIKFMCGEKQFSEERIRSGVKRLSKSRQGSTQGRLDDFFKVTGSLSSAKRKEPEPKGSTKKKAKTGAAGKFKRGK
FEN1 (FEN1-1.His), sequence (P39748 whole entry): as the sequence (P39748 whole entry D181A) above, with A181D counted along it

With UCAACGUGGGCAAAGAAUGUCCUACGUCCGAUACGGAUAAUCGC (ssRNA) [RNA44 ssRNA] the binding signal [1] was 3 fold lower affinity than RNA flap substrates.

B1: U3:T2:RNA44* 5' RNA flap with 20 nt 3' flap (mixed)
DNA 1: GCGATTATCCGTATCGGACGTAGGAAGCCTGCCATTTGATGGTC
DNA 2: GACCATCAAATGGCAGGCTGAACGAACAAAGCGAAAGCG
RNA: UCAACGUGGGCAAAGAAUGUCCUACGUCCGAUACGGAUAAUCGC
B1: binds [2].

B2: T2:U2:RNA44* 5' RNA flap (mixed)
DNA 1: B1 DNA 1
DNA 2: GACCATCAAATGGCAGGCTG
RNA: B1 RNA
In the case of B2, the binding signal [3] is reported as 3 fold more cold RNA44 for half competition than labeled ssRNA needs.

B3: T6:D1:RNA44* R-loop (mixed)
DNA 1: CTGCGTCGGCTTAAGATGGTGCGATTATCCGTATCGGACGTAGGACATTCTTTGCCCACGTTGATGGGTAGATAGCCTAACCGG
DNA 2: CCGGTTAGGCTATCTACCCATAAGTTTATTCCCTGCTCTTAGCAGATGGAGTCTGTGAACTGCAATCAATACCATCTTAAGCCGACGCAG
RNA: B1 RNA
B3: binds ([4]; label: 5'-32P on RNA44, R-loop without RNA flap).

B4: T1:U1:19DNA* equilibrating 5' DNA flap (structured_DNA)
DNA 1: GTCGACCTGCAGCCCAAGCTTGCGTTGCTG
DNA 2: CAGCAACGCAAGCTTGC
DNA 3: ATGTGGAAAATCTCTAGCAGGCTGCAGGTCGAC
B4: binds [5]; binds [6]; no binding ([4]; label: 5'-32P on 19DNA, equilibrating double flap: 19 nt 5' DNA flap, 1 nt 3' flap).
